Measurements published in the supplement of paper PMC11908140.

B1: library; numbered along this chain (parent)
chain: MRKPRAAVGSGHRKQAASQEGRQKHAKNNSQAKPSACDGLARQPEEVVLQASVSSYHLFRDVAEVTAFRGSLLSWYDQEKRDLPWRRRAEDEMDLDRRAYAVWVSEVMLQQTQVATVINYYTGWMQKWPTLQDLASASLEEVNQLWAGLGYYSRGRRLQEGARKVVEELGGHMPRTAETLQQLLPGVGRYTAGAIASIAFGQATGVVDGNVARVLCRVRAIGADPSSTLVSQQLWGLAQQLVDPARPGDFNQAAMELGATVCTPQRPLCSQCPVESLCRARQRVEQEQLLASGSLSGSPDVEECAPNTGQCHLCLPPSEPWDQTLGVVNFPRKASRKPPREESSATCVLEQPGALGAQILLVQRPNSGLLAGLWEFPSVTWEPSEQLQRKALLQELQRWAGPLPATHLRHLGEVVHTFSHIKLTYQVYGLALEGQTPVTTVPPGARWLTQEEFHTAAVSTAMKKVFRVYQGQQPGTCMGSKRSQVSSPCSRKKPRMGQQVLDNFFRSHISTDAHSLNSAAQ

Variants of: B1
Test: 8OG:A repair function score (normalized; synonymous = 0, nonsense = -1) (normalized log-likelihood score); higher = more repair activity (WT-like)
Settings: with 8OG:A DNA repair reporter (GFP) in HEK-293 MUTYH KO cells
Procedure, shortened: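 GFP+ (repair) and GFP− bins of viable mCherry+ cells were collected at 72 h from MUTYH knockout HEK-293 cells bearing lentiviral MUTYH cDNA NNN codon-scan libraries in 10 pg/ml doxycycline, co-transfected with an 8OG:A GFP repair reporter and mCherry. Tile amplicons were sequenced, and per-tile Rosace fitness scores were normalized to a repair function score anchored on synonymous and nonsense distributions. Synonymous medians were set to 0 and nonsense to -1, with variants under 300 counts per million at the start removed.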
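Further: cells sorted at 72 h after reporter transfection.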

8OG:A repair function score: each site, then its substitutions
G170: K -0.0295; I -0.395; W -0.239; P -0.872; C -0.00944; Y -0.062; M -0.0605; Q 0.0993; R -0.0153; V -0.31; T -0.248; D 0.0788; L -0.232; F -0.166; E -0.0272; H 0.094; N 0.0595; S 0.00875
Q159: V 0.0456; F 0.0628; P -0.377; C 0.0194; I 0.0245; A -0.0252; H 0.0232; S -0.121; E -0.416; M 0.0724; D -0.824; R 0.162; T -0.0681; Y 0.116; N -0.144; L 0.127; W 0.287; G -0.279; K 0.0628
E160: Y -0.063; Q 0.018; M 0.0471; S -0.0339; P -0.814; V -0.00913; W 0.0263; I -0.0174; L -0.0898; F -0.0745; T -0.0143; G -0.116; N -0.0629; H -0.264; A 0.0427; C -0.0918; D -0.104; K -0.0797; R -0.136
G161: C -0.293; V -0.579; W -1.19; L -1.01; Q -0.911; D -0.688; K -1.07; S -0.13; E -0.898; A -0.00122; N -0.325; F -1.03; Y -1.04; I -0.841; R -1.15; T -0.317; M -0.776; H -1.12; P -0.919
V165: P -1.08; E -1.11; Q -0.882; G -0.877; C -0.0561; S -0.732; W -0.957; D -0.91; M -0.283; L -0.0671; F -0.802; N -1.08; R -1.07; A -0.341; T -0.312; Y -1.15; K -1.13; H -1.11; I -0.0615
G155: Y -0.667; R -0.543; T -0.218; W -0.265; V -0.116; S -0.0824; P -0.0172; Q -0.682; N -0.213; M -0.629; L -0.574
R156: E -0.319; G -0.287; V -0.117; K 0.00226; S -0.193; C -0.162; F -0.3; I -0.152; H -0.0809; W -0.133; L -0.142; N -0.179; A -0.122; Q -0.136; D -0.477; M -0.207; Y -0.337; T -0.238; P -0.341
A162: G -0.456; E -1.14; V -0.278; K -1.03; Y -1.22; Q -0.953; H -1.08; F -1.26; T -0.155; I -0.523; L -1; N -0.917; R -1.02; W -0.917; M -0.887; D -1.2; C -0.175; S -0.159; P -1.19
R163: S -0.122; D -0.387; K -0.132; N -0.164; W -0.296; G -0.378; A -0.182; E -0.375; M -0.0916; I -0.115; H -0.238; V -0.0917; F -0.174; C -0.00395; L -0.128; Q -0.143; T -0.128; P -0.887; Y -0.137
E168: R -0.0574; P -0.661; T -0.0102; A -0.135; W -0.201; D -0.0557; C 0.0112; Y -0.173; F -0.102; S -0.0595; Q 0.0147; K -0.00268; H -0.103; M -0.0593; N 0.0349; G -0.24; V -0.0341; L -0.0373; I -0.134
G171: T -0.321; Y -0.628; P -1.16; N -0.204; K -0.84; F -0.571; D -0.296; R -0.577; W -0.633; C -0.239; M -0.536; H -0.42; I -0.703; L -0.605; V -0.443; S -0.267; E -0.526; A -0.18; Q -0.338
L158: E -1.05; R -1.09; W -0.991; N -1.2; Q -1.31; C -0.573; V -0.372; D -1.18; K -1.19; P -0.951; S -1.05; G -1.15; F -0.384; I -0.11; T -0.756; M -0.194; Y -1.09; A -0.675; H -0.935
H172: W -0.21; D -0.0948; P -0.512; S 0.0204; K 0.118; T 0.0683; M 0.0264; F -0.0443; G -0.216; L -0.0966; E 0.017; A -0.0729; V 0.0577; N -0.0786; Q 0.0285; I -0.0329; Y -0.0294; C -0.0393; R -0.0155
R157: N 0.023; I -0.517; D -0.365; M -0.0764; T -0.216; L -0.141; V -0.362; F -0.0928; S -0.182; C -0.297; A -0.14; Y -0.068; P -1.11; W -0.0111; Q -0.117; H -0.0973; K -0.0295; G -0.381; E -0.665
V166: W 0.0741; L -0.161; R -0.182; I 0.0212; D -0.293; Y -0.184; P -0.858; K -0.116; S -0.0616; N -0.124; C 0.0203; E -0.327; Q -0.0914; M -0.0629; F -0.0998; A -0.1; H -0.183; T -0.155; G -0.466
K164: G -0.431; W -0.0721; T -0.103; P -1.12; C -0.21; A -0.133; H -0.186; F 0.104; D -0.483; S -0.168; Q -0.101; Y -0.0367; E -0.382; N -0.37; V 0.027; L 0.0383; M 0.168; R -0.0158; I 0.0586
M173: A -0.537
L169: R -0.105; T -0.186; I -0.337; D -0.386; Q -0.00403; V -0.409; K -0.189; G -0.273; S -0.284; Y -0.104; N -0.172; C -0.0691; F -0.0235; E -0.261; P -0.645; H -0.0549; A -0.177; M 0.0203; W -0.0366
E167: H -0.0317; T 0.067; D 0.018; C -0.0723; L 0.00804; R -0.0147; A -0.18; P -0.768; M -0.0528; V -0.0209; K 0.0784; S -0.0659; W -0.0936; Q 0.141; F 0.0154; N 0.0307; I -0.0169; Y 0.0239; G 0.00335
